The record followed here is patent publication US20260109742A1 (LUMEN BIOSCIENCE, published 2026).

Test [1] has as its target PP1113 (MBP-5HVZ-PAPA-RN-29-H6). The test is described as follows: hydrabody complex of smAKAP-linked VHH dimer with 5HVZ homodimer.
Method: Briefly, to Assess in vitro protease stability of clones, purified protein samples were prepared at 0.2 mg/mL in protease digestion buffer (20 mM Bis-Tris, 150 mM NaCl, 3 mM CaCl2 pH 6.0). The protease enzymes trypsin and chymotrypsin were diluted from 1 mg/mL stalk concentration to 0.2 mg/mL in protease digest buffer. Both the protein and enzyme were diluted 1:10 in protease digestion buffer. The digestion reactions were conducted by mixing 30 μL of diluted protein and 30 μL of diluted protease. The reactions were mixed by centrifugation for 30 seconds at high speed and incubated at 37° C. for 60 minutes with shaking at 900 rpm in an Eppendorf ThermoMixer. Reactions were quenched with an equal volume of stop buffer containing 2 mM PMSF and 2× Pierce protease inhibitor minitablet in PBS. The final concentration of each VHH homodimer after protease neutralization was 0.1 mg/mL. Samples were kept on ice for ELISA assay.
Digested protein samples were analyzed for binding activity via ELISA. High-binding ELISA plates were coated with 100 μl/well of 1 μg/mL SARS-COV-2 RBD in CBC binding buffer and incubated overnight at 4° C. Plates were washed 3× with PBS supplemented with 0.05% Tween-20 (PBS-tw), then blocked for 1 hour with 300 μl/well of blocking buffer (PBS-tw supplemented with 5% Non-fat dried milk). […] Absorbance was read at 450 nm with a Spectra Max M5 plate reader.
Test [2] has the same target. Put plainly: analytical SEC, 5HVZ dimer with smAKAP clone at 1:2 molar ratio.

B1: PP1895 (S3B-C8_smAKAP-C70S_C78S_S3B-C8_H6) (bispecific antibody)
chain: MSGQVQLVESGGGLVQPGGSLRLSCAASGSIENIERMHWYRQAPGKQRELVAVIDSGGTTRYADSVKGRFTISRDNAKNTVYLQMNSLKPEDTAVYYCAAVWLTNAESTQEYWGQGTQVTVSSGGTVILEYAHRLSQDILSDALQQWASSGGGGSGGGGGQVQLVESGGGLVQPGGSLRLSCAASGSIENIERMHWYRQAPGKQRELVAVIDSGGTTRYADSVKGRFTISRDNAKNTVYLQMNSLKPEDTAVYYCAAVWLTNAESTQEYWGQGTQVTVSSGGSHHHHHH
With B1, the binding result in test [1] is listed as “binds”.

B2: PP2455 (myctag-S3b-C8-smAKAP_R63E_C70S_C78G-S3b-C8-H6) (bispecific antibody)
chain: MEQKLISEEDLSGGQVQLVESGGGLVQPGGSLRLSCAASGSIENIERMHWYRQAPGKQRELVAVIDSGGTTRYADSVKGRFTISRDNAKNTVYLQMNSLKPEDTAVYYCAAVWLTNAESTQEYWGQGTQVTVSSGGGGSTVILEYAHELSQDILSDALQQWAGGGSGSQVQLVESGGGLVQPGGSLRLSCAASGSIENIERMHWYRQAPGKQRELVAVIDSGGTTRYADSVKGRFTISRDNAKNTVYLQMNSLKPEDTAVYYCAAVWLTNAESTQEYWGQGTQVTVSSHHHHHH
notes: also called R63E mutant
As for B2, the binding result in test [2] was “binds”.

B3: PP2456 (myctag-S3b-C8-smAKAP_R63E_C70S_W76S_C78G-S3b-C8-H6) (bispecific antibody)
chain: MEQKLISEEDLSGGQVQLVESGGGLVQPGGSLRLSCAASGSIENIERMHWYRQAPGKQRELVAVIDSGGTTRYADSVKGRFTISRDNAKNTVYLQMNSLKPEDTAVYYCAAVWLTNAESTQEYWGQGTQVTVSSGGGGSTVILEYAHELSQDILSDALQQSAGGGSGSQVQLVESGGGLVQPGGSLRLSCAASGSIENIERMHWYRQAPGKQRELVAVIDSGGTTRYADSVKGRFTISRDNAKNTVYLQMNSLKPEDTAVYYCAAVWLTNAESTQEYWGQGTQVTVSSHHHHHH
notes: also called pp 2456 (W76S)
As for B3, the binding result in test [2] is “binds”.
